Laboratory results published in US20230312756A1 (MacroGenics, published 2023).

Target: T1, PD-1 on circulating T cells of patients (human, UniProt Q15116 25-288)
T1 construct: whole, on cells; Probably the same protein as m2
Experiment: receptor occupancy by flow cytometry on blood of patients treated with DART-D
Experimental: Receptor Occupancy (RO): One hundred microliter […] volumes of whole blood samples (per time point/per patient) were incubated with saturating concentration of DART-D, followed by lysis and detection of DART-D by biotinylated anti-drug mAb/Strep-PE in “DART-D-spiked” and control samples. After subtraction of background fluorescence (Step-PE only), RO values were calculated as a fraction of maximal binding capacity: RO=(untreated MFI(PE)−background MFI(PE))/(treated MFI(PE)−background MFI(PE)).

T1 sequence (Q15116 25-288): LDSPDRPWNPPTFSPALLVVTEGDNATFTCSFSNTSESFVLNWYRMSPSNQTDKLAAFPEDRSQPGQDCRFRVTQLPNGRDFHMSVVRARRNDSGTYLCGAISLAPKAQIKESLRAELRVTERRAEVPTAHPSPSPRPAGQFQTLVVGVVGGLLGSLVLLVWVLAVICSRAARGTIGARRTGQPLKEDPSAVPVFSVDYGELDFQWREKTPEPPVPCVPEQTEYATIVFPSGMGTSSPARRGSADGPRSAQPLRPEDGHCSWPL

binding result: binds
B1: DART-D (bispecific antibody, human IgG4 S228P)
chain 1: EIVLTQSPATLSLSPGERATLSCRASESVDNYGMSFMNWFQQKPGQPPKLLIHAASNQGSGVPSRFSGSGSGTDFTLTISSLEPEDFAVYFCQQSKEVPYTFGGGTKVEIKGGGSGGGGQVQLVESGGGVVQPGRSLRLSCAASGFTFSSYTMHWVRQAPGKGLEWVTFISYDGSNKHYADSVKGRFTVSRDNSKNTLYLQMNSLRAEDTAIYYCARTGWLGPFDYWGQGTLVTVSSGGCGGGEVAACEKEVAALEKEVAALEKEVAALEKESKYGPPCPPCPAPEFLGGPSVFLFPPKPKDTLYITREPEVTCVVVDVSQEDPEVQFNWYVDGVEVHNAKTKPREEQFNSTYRVVSVLTVLHQDWLNGKEYKCKVSNKGLPSSIEKTISKAKGQPREPQVYTLPPSQEEMTKNQVSLTCLVKGFYPSDIAVEWESNGQPENNYKTTPPVLDSDGSFFLYSRLTVDKSRWQEGNVFSCSVMHEALHNHYTQKSLSLSLG
chain 2: not shown
notes: Tetravalent (2x2) four-chain Fc-bearing diabody, two sites for PD-1 and two for CTLA-4; also called MGD019; PD-1×CTLA-4 bispecific molecule
